# Test results as given in FireProtDB (doi:10.1016/j.bpc.2008.09.020).
# Conditions: Pseudomonas aeruginosa (strain ATCC 15692 / DSM 22644 / CIP 104116 / JCM 14847 / LMG 12228 / 1C / PRS 101 / PAO1), 25 °C, GdnHCl, CD, Sodium acetate 20 mM, whole UniProt chain shown
protein,measurement,setting,value
"Cytochrome c-551 wild type, P00099 (protein) MKPYALLSLLATGTLLAQGAWAEDPEVLFKNKGCVACHAIDTKMVGPAYKDVAAKFAGQAGAEAELAQRIKNGSQGVWGPIPMPPNAVSDDEAQTLAKWVLSQK",denaturant m value,pH 3.6,2.88 kcal/mol/M
same,denaturant midpoint (higher = more stable),pH 3.6,1.44 M
same,unfolding free energy,pH 3.6,4.14 kcal/mol
same,denaturant m value,pH 5,2.64 kcal/mol/M
same,denaturant midpoint (higher = more stable),pH 5,2.06 M
same,unfolding free energy,pH 5,5.44 kcal/mol
